Experimental data published in the RNAGym collection of RNA variant scans (doi:10.1073/pnas.2313332121).
Variants at the floor of the assay were thinned out.

B1: TPR 5TU (parent)
chain: GGAUCUUCUCGAUCUAACAAAAAAGACAAAUCUGCCACAAAGCUUGAGAGCAUCUUCGGAUGCAGAGGCGGCAGCCUUCGGUGGCGCGAUAGCGCCAACGUUCUCAACUAUGACACGCAAAACGCGUGCUCCGUUGAAUGGAGUUUAUCAUG

Variants of: B1
Assay: polymerase ribozyme fitness, log enrichment relative to wild type (log ratio); higher = more active; in vitro selection for triplet polymerase activity
Summary of the method: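 A single round of triplicate in vitro selection, including frozen incubation at −7 °C, was applied to PCR-built, transcribed mutant libraries of each subunit of a heterodimeric triplet polymerase ribozyme. Illumina sequencing of input and output libraries retained genotypes with ≥10 input reads and ≥1 read per output. Fitness is the base-2 logarithm of genotype enrichment divided by wild-type enrichment, from inverse-variance-weighted replicate averages.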

Row | Variant | polymerase ribozyme fitness (log ratio)
1 | C38G G133C A147C | -2.55
2 | C38U A73G C87U | 0.139
3 | C38A U53A C63U G80A C95A | ≤ -4.2
4 | C38A G84A G86C G117U | ≤ -4.2
5 | C38G C85U A89C | -1.86
6 | C38U C54U C57A G84A C118U | -1.06
7 | C38U A60U C87U C95G U135A | ≤ -4.2
8 | C38A C93A G143U | -4.12
9 | C38U A60C U77G C87U G94A U101A C105A | ≤ -4.2
10 | C38U C93U A121G G124A U135G | ≤ -4.2
11 | C38A C87U A98G A106C C125A U135A C149A | ≤ -4.2
12 | C38G A40G A49G A60U C93A A121G | ≤ -4.2
13 | C38U C87U A115U C125U | -3.34
14 | C38U A60C U61A C76U C87G C93A G136A G141A | ≤ -4.2
15 | C38G U56A G94A A121G | -1.64
16 | C38U G50A A52U G68U G80A A97G A137U | ≤ -4.2
17 | C38U G50A A73U G126U | -3.21
18 | C38G G80C C99G C116U | -0.78
19 | C38A G86C | -3.27
20 | C38A C87A | ≤ -4.2
21 | C38U C87U C95U U144A | -1.21

Row | Variant | polymerase ribozyme fitness (log ratio)
22 | C38A C85A U144C | -0.839
23 | C38G A142C | -1.24
24 | C38A G94U G143U | ≤ -4.2
25 | C38U G46A C95A | -0.705
26 | C38U C76G | ≤ -4.2
27 | C38G C54A G74U A106U G140U | ≤ -4.2
28 | C38U A47C A64C U78G G84C A97C C108U | ≤ -4.2
29 | C38U A106U U145C | -1.24
30 | C38U A40C G80U C95U | -1.06
31 | C38U A41U G94A | -1.15
32 | C38G A73U C95A U146G | -2.85
33 | C38G C43U C87A C132G U135G G136C U146A | ≤ -4.2
34 | C38U C93A A119C A142U | -3.54
35 | C38U C63U A73G C87U | -0.21
36 | C38U G58C C96U A98G | 0.385
37 | C38U A52C A60G A119G | 0.129
38 | C38U C72U C95G | -0.675
39 | C38A U55G A60G | 0.135
40 | C38U C95A C108U | -3.39
41 | C38U A39C A60U | -3.28
42 | C38U A52G C93G G117U | -3.91

Row | Variant | polymerase ribozyme fitness (log ratio)
43 | C38A C93A | -2.59
44 | C38U A107C | -3.45
45 | C38U C63A C85U | 0.65
46 | C38A U53A A60U C93G C131A G141C | -3.94
47 | C38A U55A | -0.143
48 | C38U C95G U102A | -2.51
49 | C38U G50A U77C C87G | ≤ -4.2
50 | C38U C54A A60U | -0.76
51 | C38U A66G U82A C96U C125A U145A | ≤ -4.2
52 | C38A U56G G136C U146C | -3.92
53 | C38U A39C U61G G124C | -3.96
54 | C38G A52G G62A U135G | ≤ -4.2
55 | C38U A47C U53A A142C | -3.39
56 | C38U C95A | -1.07
57 | C38U C95U | -0.731
58 | C38G G141A | -0.0444
59 | C38G A60G C76G G81A G84U U102G C116U G128A | ≤ -4.2
60 | C38G G92A C105G | ≤ -4.2
61 | C38A C118U A120C G141A | -0.525
62 | C38U G58A U61A U134C | -1.57
63 | C38U C76U G81C | -0.0752

Row | Variant | polymerase ribozyme fitness (log ratio)
64 | C38G G42C G71C C95A C96A | ≤ -4.2
65 | C38A C63G A150G | -3
66 | C38U C51G U82C C96A A97U C125G | -3.55
67 | C38G U56G C72A A91U A107C G117A U148A | ≤ -4.2
68 | C38G G71A U82G A107U | ≤ -4.2
69 | C38U C87G | -3.75
70 | C38U C87U | -1.19
71 | C38U G48C G92A A142C G143U | ≤ -4.2
72 | C38G G58C G84A A119U | -0.795
73 | C38U G58U C85U C108A U134A U144C | ≤ -4.2
74 | C38A C63A C95U A106G | -1.81
75 | C38G C75U C93G | -4.16
76 | C38A U55A C85A | -2.66
77 | C38A U55A G94U C99G | -3.88
78 | C38A C54A C63U G70U C75U C87A | ≤ -4.2
79 | C38U G48A C87A | ≤ -4.2
80 | C38U C57A G143C | -2.41
81 | C38A U56A G74C G92U U109G | ≤ -4.2
82 | C38G G42C U82G G86C G141C U144G | ≤ -4.2
83 | C38A C76A C93U G117A | -1.25
84 | C38G C43U G81U G86U A98G C103G A150G U151C | ≤ -4.2
